The values that follow come from PMC10556095, “A natural mutation in the promoter of Ms-cd1 causes dominant male sterility in Brassica oleracea”.

The target in data set [1] is T1, BoERF1L-His (His-BoERF1L; Methods: His-BoERF1) (Brassica oleracea, UniProt A0A0D3ABA8 1-210). Nature of the data set: EMSA; EMSA: 10 µL with 2 µg protein, 20 fmol biotin-labeled DNA, 2 µL 5x EMSA/Gel-Shift Binding Buffer (GS005, Beyotime); 6% polyacrylamide gel; salt, pH and temperature not stated. Conditions: protein: recombinant, tags: His (Methods: C-terminal; pET-SUMO vector). Background: A gel shift assay detects complexes by their altered migration in electrophoresis.

The target of data set [2] is T1, BoERF1L-His (His-BoERF1L; Methods: …). Nature of the data set: EMSA; unlabeled WTpro at 20x, 30x, 40x competes dose-dependently; EMSA: 10 µL with 2 µg protein, 20 fmol biotin-labeled DNA, 2 µL 5x EMSA/Gel-Shift Binding Buffer (GS005, Beyotime); 6% polyacrylamide gel; salt, pH and temperature not stated. The following applies: protein: recombinant; tags: His (Methods: C-terminal; pET-SUMO vector); label: biotin.

T1 sequence (A0A0D3ABA8 entry or part of it): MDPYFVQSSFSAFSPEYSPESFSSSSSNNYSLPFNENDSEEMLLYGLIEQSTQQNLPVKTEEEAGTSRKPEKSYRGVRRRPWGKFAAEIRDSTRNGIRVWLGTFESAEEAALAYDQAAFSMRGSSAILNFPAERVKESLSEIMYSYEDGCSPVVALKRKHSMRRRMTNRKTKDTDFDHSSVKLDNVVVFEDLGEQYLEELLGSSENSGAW

B1: MTpro (dsDNA)
DNA 1: GATACATGTAAGTGCAGGTAGCTCATGCAGAAATTGACGGAACACAGAGTTACTCTGATTCTATA
DNA 2: TATAGAATCAGAGTAACTCTGTGTTCCGTCAATTTCTGCATGAGCTACCTGCACTTACATGTATC
In the case of B1, in data set [1] (label: biotin), the binding result is recorded as “no binding”.

B2: WTpro (dsDNA)
DNA 1: GATACATGTAAGTGCAGGTAGCTCATGACAGAAATTGACGGAACACAGAGTTACTCTGATTCTATA
DNA 2: TATAGAATCAGAGTAACTCTGTGTTCCGTCAATTTCTGTCATGAGCTACCTGCACTTACATGTATC
Take B2: in data set [2], the binding result is “binds”.

B3: W7 (dsDNA)
DNA 1: CAGAAATTGACGGAAC
DNA 2: GTTCCGTCAATTTCTG
As for B3, the binding result in data set [1] was “no binding”.

B4: W1 (dsDNA)
DNA 1: GTGCAGGTAGCTCATG
DNA 2: CATGAGCTACCTGCAC
As to B4, the binding result in data set [1] is reported as “no binding”.
